Experiments:
IL-6Rα = biological target: T1, IL-6Rα (Homo sapiens, UniProt P08887); assay: Cell surface binding on IL-6Rα+/IL-8R− HEK 293T cells (flow cytometry); details: 2 hr at 4° C.
T1 construct: expressed in transfected cells; host or cells: HEK 293T, lentiviral transduction (pCDH backbone)
T1 sequence (P08887 20-468): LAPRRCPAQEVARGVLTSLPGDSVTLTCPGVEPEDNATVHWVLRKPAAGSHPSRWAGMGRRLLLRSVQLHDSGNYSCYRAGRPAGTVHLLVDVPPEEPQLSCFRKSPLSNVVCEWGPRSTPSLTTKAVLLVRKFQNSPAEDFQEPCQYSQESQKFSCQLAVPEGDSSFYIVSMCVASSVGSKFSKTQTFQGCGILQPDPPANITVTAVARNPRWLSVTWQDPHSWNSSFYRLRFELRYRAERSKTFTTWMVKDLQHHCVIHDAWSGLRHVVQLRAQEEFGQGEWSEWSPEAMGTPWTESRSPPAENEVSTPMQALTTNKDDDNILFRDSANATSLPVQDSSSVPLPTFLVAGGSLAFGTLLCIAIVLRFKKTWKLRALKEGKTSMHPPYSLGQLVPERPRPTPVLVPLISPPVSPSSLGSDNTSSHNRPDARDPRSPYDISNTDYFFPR
Excerpt: GeneJuice (Sigma Aldrich) was used as the transfection reagent.
Mean fluorescence intensity (MFI) of unstimulated cells was subtracted.

IL-8 binding to IL-8R = biological target: T2, IL-8 binding to IL-8R (Homo sapiens, UniProt P25025); assay: IL-8 cell surface binding inhibition on IL-6Rα−/IL-8R+ HEK 293T cells; details: His-tagged IL-8 400 nM
T2 construct: expressed in transfected cells; host or cells: HEK 293T, lentiviral transduction (IL-6Rα−/IL-8R+)
T2 sequence (P25025 1-360): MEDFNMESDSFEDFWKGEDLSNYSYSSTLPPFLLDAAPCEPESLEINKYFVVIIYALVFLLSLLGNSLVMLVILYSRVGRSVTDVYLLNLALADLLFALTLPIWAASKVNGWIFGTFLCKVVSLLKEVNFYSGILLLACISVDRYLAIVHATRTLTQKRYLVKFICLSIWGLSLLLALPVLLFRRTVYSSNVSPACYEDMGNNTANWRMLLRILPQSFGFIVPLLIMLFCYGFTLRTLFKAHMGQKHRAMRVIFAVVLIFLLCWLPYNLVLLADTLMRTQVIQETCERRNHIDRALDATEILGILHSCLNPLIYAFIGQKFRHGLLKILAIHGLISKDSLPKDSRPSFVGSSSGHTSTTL
Method: Cells were then washed and incubated with 1:200 dilution of Alexa Fluor 647-conjugated streptavidin (Fisher Scientific, cat #: S21374) in PBSA for 15 min at 4° C. […] Curves were fitted to a first-order logistic model and IC50 values were calculated using GraphPad Prism data analysis software. Mean fluorescence intensity (MFI) of unstimulated cells was subtracted. […]

KD, binding to IL-6Rα on cells (IL-6Rα): only recognized IL-6Rα^+ cells
IC50, competition with IL-8 binding to IL-8R (IL-8 binding to IL-8R): did not exert any inhibitory effects
Substance: tocilizumab
